Experimental data published in US9176064B2, “Bisubstrate fluorescent probes for protein kinase CK2” (University of Tartu, priority 2012, dated 2015).
Where a SMILES comes first, the peptide text is derived from it. [ ]: non-standard residue; d: D form. The star is where a group is joined. X1 = O=C(CCCCCCCn1cnc2c(Br)c(Br)c(Br)c(Br)c21)*

Key:
Test in all cases: Kinase panel residual activity
Type in all cases: biochemical
Conditions in all cases: compound at 1 micromolar
PIM3 = PIM3 (Homo sapiens, UniProt Q86V86)
S6K1 = S6K1 (Homo sapiens, UniProt P23443)
Chain of S6K1 (P23443 whole entry, species assumed): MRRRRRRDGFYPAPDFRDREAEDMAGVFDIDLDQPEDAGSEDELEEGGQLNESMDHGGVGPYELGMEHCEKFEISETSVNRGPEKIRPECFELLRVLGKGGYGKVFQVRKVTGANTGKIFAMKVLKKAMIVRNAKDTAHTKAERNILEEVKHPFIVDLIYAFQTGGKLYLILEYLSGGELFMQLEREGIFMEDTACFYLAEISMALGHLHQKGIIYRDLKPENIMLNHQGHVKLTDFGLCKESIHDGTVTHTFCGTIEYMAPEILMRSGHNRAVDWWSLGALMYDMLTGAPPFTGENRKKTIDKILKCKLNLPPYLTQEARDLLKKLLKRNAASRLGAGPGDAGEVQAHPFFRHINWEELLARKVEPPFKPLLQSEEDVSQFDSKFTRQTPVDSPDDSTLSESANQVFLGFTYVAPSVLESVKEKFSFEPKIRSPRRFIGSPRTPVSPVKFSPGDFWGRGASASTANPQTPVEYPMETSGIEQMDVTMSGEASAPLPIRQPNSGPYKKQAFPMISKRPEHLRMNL

CDK9-Cyclin T1 = CDK9-Cyclin T1 (Homo sapiens, UniProt P50750)
Chain of CDK9-Cyclin T1 (P50750 whole entry): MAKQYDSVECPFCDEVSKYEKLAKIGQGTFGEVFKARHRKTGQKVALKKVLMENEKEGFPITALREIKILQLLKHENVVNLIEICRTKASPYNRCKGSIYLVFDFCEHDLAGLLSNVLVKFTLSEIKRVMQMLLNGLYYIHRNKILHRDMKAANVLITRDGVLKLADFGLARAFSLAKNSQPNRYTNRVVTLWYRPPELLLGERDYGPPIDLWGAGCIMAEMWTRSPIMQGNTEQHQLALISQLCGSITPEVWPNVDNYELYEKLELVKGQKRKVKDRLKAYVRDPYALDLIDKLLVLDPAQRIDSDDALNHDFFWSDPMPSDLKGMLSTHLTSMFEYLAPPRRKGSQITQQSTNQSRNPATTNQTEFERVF
Chain of CDK9-Cyclin T1 (O60563 whole entry partner): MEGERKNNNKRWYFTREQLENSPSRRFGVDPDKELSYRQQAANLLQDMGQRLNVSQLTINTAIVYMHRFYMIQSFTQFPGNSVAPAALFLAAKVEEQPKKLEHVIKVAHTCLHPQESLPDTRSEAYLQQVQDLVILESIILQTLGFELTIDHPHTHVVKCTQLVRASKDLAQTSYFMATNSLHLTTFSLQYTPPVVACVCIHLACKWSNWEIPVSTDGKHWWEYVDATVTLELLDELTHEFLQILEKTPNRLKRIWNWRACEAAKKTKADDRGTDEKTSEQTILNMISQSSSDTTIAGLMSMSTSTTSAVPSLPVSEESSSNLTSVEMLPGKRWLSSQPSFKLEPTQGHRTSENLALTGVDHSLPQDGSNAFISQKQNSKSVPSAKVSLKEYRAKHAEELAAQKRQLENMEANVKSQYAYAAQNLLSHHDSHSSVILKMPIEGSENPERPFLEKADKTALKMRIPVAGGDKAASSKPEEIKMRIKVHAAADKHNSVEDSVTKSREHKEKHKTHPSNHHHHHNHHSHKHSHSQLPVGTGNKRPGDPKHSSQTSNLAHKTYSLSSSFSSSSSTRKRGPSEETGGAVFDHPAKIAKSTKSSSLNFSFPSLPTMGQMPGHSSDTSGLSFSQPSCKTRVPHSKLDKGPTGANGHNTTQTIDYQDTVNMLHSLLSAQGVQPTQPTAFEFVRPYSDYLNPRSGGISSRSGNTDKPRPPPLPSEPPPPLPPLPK

JAK2 = JAK2 (Homo sapiens, UniProt O60674)
Chain of JAK2 (O60674 whole entry, species assumed): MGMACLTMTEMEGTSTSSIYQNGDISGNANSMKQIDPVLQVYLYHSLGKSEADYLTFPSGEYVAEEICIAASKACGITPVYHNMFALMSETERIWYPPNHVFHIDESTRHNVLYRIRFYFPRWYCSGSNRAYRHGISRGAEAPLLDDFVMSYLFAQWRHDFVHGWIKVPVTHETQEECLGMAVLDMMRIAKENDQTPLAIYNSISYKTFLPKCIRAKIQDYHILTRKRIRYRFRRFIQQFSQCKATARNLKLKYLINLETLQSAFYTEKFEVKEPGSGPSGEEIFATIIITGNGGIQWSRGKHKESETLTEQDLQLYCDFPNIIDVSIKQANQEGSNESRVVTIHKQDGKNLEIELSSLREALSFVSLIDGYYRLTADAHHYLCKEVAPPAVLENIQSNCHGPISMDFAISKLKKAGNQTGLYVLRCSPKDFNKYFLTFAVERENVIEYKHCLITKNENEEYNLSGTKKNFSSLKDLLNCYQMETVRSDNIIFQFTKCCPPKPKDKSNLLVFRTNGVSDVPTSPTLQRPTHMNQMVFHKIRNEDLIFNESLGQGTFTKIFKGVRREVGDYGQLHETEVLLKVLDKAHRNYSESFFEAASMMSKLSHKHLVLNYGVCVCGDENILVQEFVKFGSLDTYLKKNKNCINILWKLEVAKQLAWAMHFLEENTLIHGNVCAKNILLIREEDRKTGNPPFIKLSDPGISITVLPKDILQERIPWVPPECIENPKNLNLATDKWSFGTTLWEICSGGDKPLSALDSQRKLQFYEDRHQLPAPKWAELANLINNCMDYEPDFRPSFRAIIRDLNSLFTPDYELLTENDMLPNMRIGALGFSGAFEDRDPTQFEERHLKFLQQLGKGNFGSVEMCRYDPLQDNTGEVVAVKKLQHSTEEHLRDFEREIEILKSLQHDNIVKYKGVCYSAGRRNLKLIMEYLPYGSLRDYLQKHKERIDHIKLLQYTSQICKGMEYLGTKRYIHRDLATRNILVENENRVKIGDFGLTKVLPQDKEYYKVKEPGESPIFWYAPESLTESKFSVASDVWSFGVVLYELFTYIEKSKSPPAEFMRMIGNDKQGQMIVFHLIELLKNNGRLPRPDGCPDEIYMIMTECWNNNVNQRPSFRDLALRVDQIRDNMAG

PRK2 = PRK2 (Homo sapiens, UniProt Q16513)
Chain of PRK2 (Q16513 whole entry, species assumed): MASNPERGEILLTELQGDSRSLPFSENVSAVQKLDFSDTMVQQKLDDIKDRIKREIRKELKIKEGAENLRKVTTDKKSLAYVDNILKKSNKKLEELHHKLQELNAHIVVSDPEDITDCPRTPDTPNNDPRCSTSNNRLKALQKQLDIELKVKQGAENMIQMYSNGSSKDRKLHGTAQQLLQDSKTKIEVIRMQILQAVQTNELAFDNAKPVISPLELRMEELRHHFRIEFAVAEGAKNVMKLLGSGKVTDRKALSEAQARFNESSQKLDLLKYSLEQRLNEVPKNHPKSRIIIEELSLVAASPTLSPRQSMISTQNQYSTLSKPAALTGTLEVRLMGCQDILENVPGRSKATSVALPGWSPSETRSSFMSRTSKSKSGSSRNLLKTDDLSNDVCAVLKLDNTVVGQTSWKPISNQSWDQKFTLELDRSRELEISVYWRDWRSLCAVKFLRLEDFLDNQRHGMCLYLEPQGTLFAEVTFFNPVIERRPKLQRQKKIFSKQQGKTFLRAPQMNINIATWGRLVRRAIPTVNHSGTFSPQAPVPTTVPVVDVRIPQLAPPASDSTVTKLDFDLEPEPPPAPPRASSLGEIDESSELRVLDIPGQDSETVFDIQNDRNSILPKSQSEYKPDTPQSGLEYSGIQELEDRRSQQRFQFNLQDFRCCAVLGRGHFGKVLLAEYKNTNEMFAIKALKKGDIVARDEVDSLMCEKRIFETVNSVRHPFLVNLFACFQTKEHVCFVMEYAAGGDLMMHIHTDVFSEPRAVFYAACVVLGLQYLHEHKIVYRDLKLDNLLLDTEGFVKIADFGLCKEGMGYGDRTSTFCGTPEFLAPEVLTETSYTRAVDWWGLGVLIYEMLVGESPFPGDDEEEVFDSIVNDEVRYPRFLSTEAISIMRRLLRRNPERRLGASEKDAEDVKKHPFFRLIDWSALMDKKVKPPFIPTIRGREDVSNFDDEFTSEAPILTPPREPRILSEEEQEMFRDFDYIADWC

MPSK1 = MPSK1 (Homo sapiens, UniProt O75716)
Chain of MPSK1 (O75716 whole entry, species assumed): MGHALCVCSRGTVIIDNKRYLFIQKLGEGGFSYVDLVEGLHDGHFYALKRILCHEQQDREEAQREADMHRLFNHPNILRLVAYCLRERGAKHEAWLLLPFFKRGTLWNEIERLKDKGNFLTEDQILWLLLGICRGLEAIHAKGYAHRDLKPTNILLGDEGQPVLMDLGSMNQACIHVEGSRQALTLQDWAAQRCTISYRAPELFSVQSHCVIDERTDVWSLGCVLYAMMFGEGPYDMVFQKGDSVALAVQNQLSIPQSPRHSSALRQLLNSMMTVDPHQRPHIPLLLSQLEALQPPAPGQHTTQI

ZAP70 = molecular target: T1, ZAP70 (Homo sapiens, UniProt P43403)
T1 sequence (P43403 1-619): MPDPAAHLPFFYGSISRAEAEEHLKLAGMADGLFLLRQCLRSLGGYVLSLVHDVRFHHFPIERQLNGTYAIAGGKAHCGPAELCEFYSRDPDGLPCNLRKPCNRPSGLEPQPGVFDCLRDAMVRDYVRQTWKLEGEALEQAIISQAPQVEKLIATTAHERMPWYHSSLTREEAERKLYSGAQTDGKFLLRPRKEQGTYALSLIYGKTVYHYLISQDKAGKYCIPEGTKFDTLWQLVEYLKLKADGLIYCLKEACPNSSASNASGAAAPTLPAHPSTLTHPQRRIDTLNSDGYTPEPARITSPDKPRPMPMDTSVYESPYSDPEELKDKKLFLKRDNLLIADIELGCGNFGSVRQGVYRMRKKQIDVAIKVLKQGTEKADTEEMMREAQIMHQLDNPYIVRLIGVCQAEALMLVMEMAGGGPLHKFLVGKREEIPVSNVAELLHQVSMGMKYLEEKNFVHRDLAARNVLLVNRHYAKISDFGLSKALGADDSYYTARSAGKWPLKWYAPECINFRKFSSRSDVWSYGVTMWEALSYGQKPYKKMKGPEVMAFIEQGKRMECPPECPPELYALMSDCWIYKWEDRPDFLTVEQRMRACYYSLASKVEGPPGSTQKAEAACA

MKK1 = MKK1 (Homo sapiens, UniProt Q02750)
Chain of MKK1 (Q02750 whole entry, species assumed): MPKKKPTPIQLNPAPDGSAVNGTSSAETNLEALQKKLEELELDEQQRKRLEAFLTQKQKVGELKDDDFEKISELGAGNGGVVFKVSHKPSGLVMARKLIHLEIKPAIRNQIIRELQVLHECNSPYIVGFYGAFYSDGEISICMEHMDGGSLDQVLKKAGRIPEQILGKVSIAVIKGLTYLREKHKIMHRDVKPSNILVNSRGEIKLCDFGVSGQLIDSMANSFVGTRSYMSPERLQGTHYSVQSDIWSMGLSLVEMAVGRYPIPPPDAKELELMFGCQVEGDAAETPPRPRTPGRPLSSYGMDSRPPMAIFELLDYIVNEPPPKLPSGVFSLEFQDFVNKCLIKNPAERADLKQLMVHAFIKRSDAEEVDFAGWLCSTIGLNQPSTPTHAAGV

JNK1 = JNK1 (Homo sapiens, UniProt P45983)
ASK1 = molecular target: T2, ASK1 (Homo sapiens, UniProt Q99683)
T2 sequence (Q99683 1-1374): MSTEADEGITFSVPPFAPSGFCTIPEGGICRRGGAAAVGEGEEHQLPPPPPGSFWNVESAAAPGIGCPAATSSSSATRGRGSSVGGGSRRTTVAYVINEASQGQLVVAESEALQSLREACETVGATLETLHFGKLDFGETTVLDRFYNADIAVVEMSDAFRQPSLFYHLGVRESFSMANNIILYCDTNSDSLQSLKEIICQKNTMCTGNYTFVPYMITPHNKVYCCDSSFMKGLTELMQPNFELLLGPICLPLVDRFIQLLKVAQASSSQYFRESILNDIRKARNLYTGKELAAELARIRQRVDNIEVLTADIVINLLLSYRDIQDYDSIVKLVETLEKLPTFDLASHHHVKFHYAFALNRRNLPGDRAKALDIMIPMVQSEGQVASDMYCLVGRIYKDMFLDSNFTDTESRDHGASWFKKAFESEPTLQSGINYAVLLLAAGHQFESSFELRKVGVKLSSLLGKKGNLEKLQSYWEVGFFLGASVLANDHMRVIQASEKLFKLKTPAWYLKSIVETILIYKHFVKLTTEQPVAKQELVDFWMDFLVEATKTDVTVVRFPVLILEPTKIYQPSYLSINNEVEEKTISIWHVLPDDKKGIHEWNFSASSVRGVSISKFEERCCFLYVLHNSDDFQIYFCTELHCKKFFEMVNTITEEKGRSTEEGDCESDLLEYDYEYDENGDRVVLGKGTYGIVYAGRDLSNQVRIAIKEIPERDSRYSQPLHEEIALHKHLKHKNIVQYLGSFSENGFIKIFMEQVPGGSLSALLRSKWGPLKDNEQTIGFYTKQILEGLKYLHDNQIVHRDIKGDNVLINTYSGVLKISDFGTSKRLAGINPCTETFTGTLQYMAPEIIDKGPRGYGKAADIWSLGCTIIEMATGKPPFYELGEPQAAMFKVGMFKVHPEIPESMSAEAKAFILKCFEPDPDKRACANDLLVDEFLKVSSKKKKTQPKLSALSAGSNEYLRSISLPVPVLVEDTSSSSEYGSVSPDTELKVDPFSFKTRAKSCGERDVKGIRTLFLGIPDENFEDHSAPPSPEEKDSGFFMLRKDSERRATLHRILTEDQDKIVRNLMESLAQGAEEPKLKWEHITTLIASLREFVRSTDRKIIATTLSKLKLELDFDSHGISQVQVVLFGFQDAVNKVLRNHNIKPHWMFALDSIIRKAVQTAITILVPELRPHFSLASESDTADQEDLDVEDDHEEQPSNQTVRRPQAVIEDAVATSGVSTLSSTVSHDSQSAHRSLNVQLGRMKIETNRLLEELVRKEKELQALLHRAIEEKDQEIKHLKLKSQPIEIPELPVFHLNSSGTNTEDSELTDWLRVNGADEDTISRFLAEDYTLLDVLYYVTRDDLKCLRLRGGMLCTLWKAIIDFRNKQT

CHK1 = molecular target: T3, CHK1 (Homo sapiens, UniProt O14757)
T3 sequence (O14757 1-476): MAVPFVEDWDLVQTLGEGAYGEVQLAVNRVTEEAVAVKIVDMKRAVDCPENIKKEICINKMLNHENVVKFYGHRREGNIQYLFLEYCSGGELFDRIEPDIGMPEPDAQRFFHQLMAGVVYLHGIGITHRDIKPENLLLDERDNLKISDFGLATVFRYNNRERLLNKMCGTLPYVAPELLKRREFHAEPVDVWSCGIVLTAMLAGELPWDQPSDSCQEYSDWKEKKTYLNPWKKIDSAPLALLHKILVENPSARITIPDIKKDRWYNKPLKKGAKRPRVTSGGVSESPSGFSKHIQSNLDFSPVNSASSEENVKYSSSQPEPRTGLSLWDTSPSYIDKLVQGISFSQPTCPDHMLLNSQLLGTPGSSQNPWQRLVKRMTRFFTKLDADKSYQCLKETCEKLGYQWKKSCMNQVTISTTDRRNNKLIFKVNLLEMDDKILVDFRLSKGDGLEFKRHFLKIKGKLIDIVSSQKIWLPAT

Question: Which results are given for NCCCC[C@H](NC(=O)[C@H](CC(=O)O)NC(=O)[C@H](CC(=O)O)NC(=O)[C@H](CC(=O)O)NC(=O)[C@H](CC(=O)O)NC(=O)[C@H](CC(=O)O)NC(=O)[C@@H](CC(=O)O)NC(=O)CCCCCCCn1cnc2c(Br)c(Br)c(Br)c(Br)c21)C(=O)O [TBBI-OcA-(D-Asp)-(L-Asp)5-(L-Lys)-OH] (X1-[dD]DDDDDK-OH)?
Answer: remaining activity at 1 µM (PIM3): 59%; remaining activity at 1 µM (S6K1): 62%; remaining activity at 1 µM (CDK9-Cyclin T1): 65%; remaining activity at 1 µM (JAK2): 66%; remaining activity at 1 µM (PRK2): 92%; remaining activity at 1 µM (MPSK1): 96%; remaining activity at 1 µM (ZAP70): 97%; remaining activity at 1 µM (MKK1): 101%; remaining activity at 1 µM (JNK1): 103%; remaining activity at 1 µM (ASK1): 114%; remaining activity at 1 µM (CHK1): 134%
